The values that follow come from patent US20220396635A1 (UNIVERSIT T STUTTGART, published 2022).

Bounds are passed on as bounds.

Experiment [1] deals with T1, HER3 (UniProt P21860 20-1342, limits assumed).
T1 construct: whole, on cells; the cell lines are human tumor lines
Description: flow cytometry, serial dilution on BT-474 cells (HER3-expressing), PE anti-His detection. How it is done:
(§1) Cell binding studies were performed by flow cytometry using cell lines with different expression levels of HER3 (Table 1). Adherent cells were washed with PBS and shortly trypsinized at 37° C. Trypsin was quenched with FCS-containing medium and removed by centrifugation (500×g, 5 min.). 1×10⁵ target cells (MCF-7, Jurkat, BT-474, FaDu, or LIM1215) were incubated with a serial dilution of recombinant proteins for 1 hour at 4° C. Bound protein was detected using a PE-conjugated anti-hexahistidyl tag mAb (Miltenyi Biotec). Incubation and washing steps were performed in PBS, 2% FBS, and 0.02% sodium azide. Fluorescence was measured by MACSQuant VYB (Miltenyi Biotec) and data were analyzed using FlowJo (Tree Star). Relative median fluorescence intensities (MFI) were calculated as followed: relative MFI=((MFIₛₐₘₚₗₑ−(MFIdetection−MFIcells))/MFIcells).
On the technique in general: Flow cytometry measures light scatter and fluorescence of single cells or particles in a stream.

In experiment [2] the target is T1, HER3. Description: cell-based or functional assay.
Experiment [3] addresses T1, HER3. Description: flow cytometry on HER3-expressing cell lines, EC50 compared with scDb-scFv. How it is done: as §1
Experiment [4] addresses T1, HER3. The experiment can be described thus: flow cytometry, serial dilution on LIM1215 cells (HER3-expressing), PE anti-His detection. How it is done:
as §1

Experiment [5] has as its target T1, HER3. Description: cell-based or functional assay. This is another data set of the same source.
Experiment [6] has as its target T1, HER3. The experiment can be described thus: flow cytometry, serial dilution on MCF-7 cells (HER3-expressing), PE anti-His detection. Here is the method: as §1
For a further experiment, the target named is T2, CD3 (UniProt P07766 23-207).
T2 construct: whole, on cells; on cells it stands in the TCR/CD3 complex; also called CD3 on Jurkat cells
The experiment can be described thus: flow cytometry, serial dilution on Jurkat cells (CD3-expressing), PE anti-His detection. How it is done:
as §1

Experiment [7] concerns the target T1, HER3. The experiment can be described thus: flow cytometry, serial dilution on FaDu cells (HER3-expressing), PE anti-His detection. How it is done:
as §1

B1: scDb3-43xhuU3-His (bispecific antibody)
chain: QVQLQQSGPGLVKPSQTLSLTCAISGDSVSSNRAAWNWIRQSPSRGLEWLGRTYYRSKWYNDYAQSLKSRITINPDTPKNQFSLQLNSVTPEDTAVYYCARDGQLGLDALDIWGQGTMVTVSSGGGGSDIQMTQSPSSLSASVGDRVTITCRASQDIRNYLNWYQQKPGKAPKLLIYYTSRLHSGVPSRFSGSGSGTDFTFTISSLQPEDIATYYCQQGNTLPWTFGQGTKLEIKRGGGGSGGGGSGGGGSQVQLVQSGAEVKKPGSSVKVSCKASGGTFSGYTMNWVRQAPGQGLEWMGLINPYKGVSTYNGKFKDRVTITADKSTSTAYMELSSLRSEDTAVYYCARSGYYGDSDWYFDVWGQGTLVTVSSGGGGSQAGLTQPPAVSVAPGQTASITCGRDNIGSRSVHWYQQKPGQAPVLVVYDDSDRPAGIPERFSGSNYENTATLTISRVEAGDEADYYCQVWGITSDHVVFGGGTKLTVLAAAHHHHHH
notes: Single-chain diabody, bivalent: one HER3 site (3-43) and one CD3 site (huU3, humanized UCHT1); The His tag is part of the entry; also called anti-HER3×CD3 bispecific scDb
A word on the EC50: it is the concentration giving half of the maximal effect. Low readings indicate an effect from little substance, high ones a need for much substance. For B1, a half-maximal effect with HER3 [1] (EC50) was put at 9.7 nM. Besides, in the experiment with HER3 [2], the “EC50 of PBMC cytotoxicity on BT-474 cells, E:T 5:1” value was 0.17 nM; the “EC50 of PBMC cytotoxicity on BT-474 cells, E:T 10:1” value turned out to be 0.2 nM; the “EC50 of PBMC cytotoxicity on FaDu cells, E:T 5:1” value is 0.4 nM; the “EC50 of PBMC cytotoxicity on FaDu cells, E:T 10:1” value was determined as 0.3 nM. In addition, in the experiment with HER3 [2], the “EC50 of PBMC cytotoxicity on LIM1215 cells, E:T 5:1” value came out at 0.08 nM; the “EC50 of PBMC cytotoxicity on LIM1215 cells, E:T 10:1” value turned out to be 0.03 nM; the “EC50 of PBMC cytotoxicity on MCF-7 cells, E:T 5:1” value turned out to be 0.07 nM; the “EC50 of PBMC cytotoxicity on MCF-7 cells, E:T 10:1” value was 0.014 nM. Moreover, in the experiment with HER3 [3], the “fold weaker binding than scDb-scFv” value is ≤ 50 fold. In addition, in the experiment with HER3 [4], the EC50 was determined as 11.7 nM. Further, in the experiment with HER3 [5], the “EC50 of CD69 expression on CD4+ T-cells (CD4+CD69+), MCF-7 co-culture” value turned out to be 0.1 nM; the “EC50 of CD69 expression on CD8+ T-cells (CD8+CD69+), MCF-7 co-culture” value is 0.16 nM; the “EC50 of IFN-γ release, PBMCs co-cultured with MCF-7 cells” value worked out at 0.609 nM; the “EC50 of IL-2 release, PBMCs co-cultured with MCF-7 cells” value amounted to 0.404 nM. In the experiment with HER3 [5], the “EC50 of proliferation of CD4+ T-cells, MCF-7 co-culture” value is 0.5 nM and the “EC50 of proliferation of CD8+ T-cells, MCF-7 co-culture” value is 0.3 nM. Moreover, in the experiment with HER3 [6], the concentration for a half-maximal effect (EC50) is 4.7 nM. Also, in the experiment with CD3, a half-maximal response (EC50) required 1.64 nM.

B2: scDb3-43xhuU3-scFv3-43-His (bispecific antibody)
chain: QVQLQQSGPGLVKPSQTLSLTCAISGDSVSSNRAAWNWIRQSPSRGLEWLGRTYYRSKWYNDYAQSLKSRITINPDTPKNQFSLQLNSVTPEDTAVYYCARDGQLGLDALDIWGQGTMVTVSSGGGGSDIQMTQSPSSLSASVGDRVTITCRASQDIRNYLNWYQQKPGKAPKLLIYYTSRLHSGVPSRFSGSGSGTDFTFTISSLQPEDIATYYCQQGNTLPWTFGQGTKLEIKRGGGGSGGGGSGGGGSQVQLVQSGAEVKKPGSSVKVSCKASGGTFSGYTMNWVRQAPGQGLEWMGLINPYKGVSTYNGKFKDRVTITADKSTSTAYMELSSLRSEDTAVYYCARSGYYGDSDWYFDVWGQGTLVTVSSGGGGSQAGLTQPPAVSVAPGQTASITCGRDNIGSRSVHWYQQKPGQAPVLVVYDDSDRPAGIPERFSGSNYENTATLTISRVEAGDEADYYCQVWGITSDHVVFGGGTKLTVLAAAGGSGGGGSGGGTQVQLQQSGPGLVKPSQTLSLTCAISGDSVSSNRAAWNWIRQSPSRGLEWLGRTYYRSKWYNDYAQSLKSRITINPDTPKNQFSLQLNSVTPEDTAVYYCARDGQLGLDALDIWGQGTMVTVSSGGGGSGGGGSGGGGSQAGLTQPPAVSVAPGQTASITCGRDNIGSRSVHWYQQKPGQAPVLVVYDDSDRPAGIPERFSGSNYENTATLTISRVEAGDEADYYCQVWGITSDHVVFGGGTKLTVLGSLHHHHHH
notes: Single chain, trivalent: two HER3 sites (3-43) and one CD3 site (huU3); The His tag is part of the entry; also called scDb-scFv; trivalent anti-HER3×anti-CD3 bsAb
B2: in the experiment with HER3 [1], the EC50 stood at 0.2 nM. Besides, in the experiment with HER3 [2], the “EC50 of PBMC cytotoxicity on BT-474 cells, E:T 5:1” value came to 0.002 nM; the “EC50 of PBMC cytotoxicity on BT-474 cells, E:T 10:1” value was found to be 0.007 nM; the “EC50 of PBMC cytotoxicity on FaDu cells, E:T 5:1” value turned out to be 0.2 nM; the “EC50 of PBMC cytotoxicity on FaDu cells, E:T 10:1” value stood at 0.1 nM. Also, in the experiment with HER3 [2], the “EC50 of PBMC cytotoxicity on LIM1215 cells, E:T 5:1” value was determined as 0.003 nM; the “EC50 of PBMC cytotoxicity on LIM1215 cells, E:T 10:1” value was 0.001 nM; the “EC50 of PBMC cytotoxicity on MCF-7 cells, E:T 5:1” value was found to be 0.003 nM; the “EC50 of PBMC cytotoxicity on MCF-7 cells, E:T 10:1” value turned out to be 0.001 nM. In the experiment with HER3 [7], this molecule came in with an EC50 of 0.1 nM. Besides, the midpoint of the response with HER3 [4], the EC50, lay at 0.2 nM. For the same molecule, in the experiment with HER3 [5], the “EC50 of CD69 expression on CD4+ T-cells (CD4+CD69+), MCF-7 co-culture” value was 0.003 nM; the “EC50 of CD69 expression on CD8+ T-cells (CD8+CD69+), MCF-7 co-culture” value worked out at 0.02 nM; the “EC50 of IFN-γ release, PBMCs co-cultured with MCF-7 cells” value was found to be 0.567 nM; the “EC50 of IL-2 release, PBMCs co-cultured with MCF-7 cells” value was found to be 0.403 nM. For the same molecule, in the experiment with HER3 [5], the “EC50 of proliferation of CD4+ T-cells, MCF-7 co-culture” value is 0.08 nM and the “EC50 of proliferation of CD8+ T-cells, MCF-7 co-culture” value is 0.09 nM. This molecule also had an EC50 with HER3 [6] of 0.03 nM. For the same molecule, the concentration for a half-maximal effect (EC50) in the experiment with CD3 came to 4 nM.
